Laboratory results reported in the supplement of paper PMC9170038.

Tested on: MS2 coat protein
Test: apparent KD of MS2 coat protein; designed switch direction (-1 OFF switch, 1 ON switch): -1; higher = weaker reporter binding
How it was run: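 Normalised cluster fluorescence was curve-fitted, and each design's median over clusters is its apparent KD. Before this, SNAP-549-labelled MS2 coat protein was titrated from 0.7 or 1.5 nM, doubling to 3 µM, over RNA switches transcribed on Illumina chips by stalled E. coli RNA polymerase. Titrations had no input, 200 uM small-molecule ligand, or an oligonucleotide input, and steps lasted 0.8–1.5 h (lowest) to 10–20 min (highest).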

[1] = input ligand: microRNA oligo, concentration not stated
[2] = Eterna round: R95, input ligand: FMN 200 uM
[3] = Eterna round: R95, input ligand: microRNA oligo, concentration not stated
[4] = Eterna round: R95, input ligand: none

| Sequence | apparent KD of MS2 coat protein (input ligand: FMN 200 uM) [nM] | apparent KD of MS2 coat protein [1] [nM] | apparent KD of MS2 coat protein (input ligand: none) [nM] | apparent KD of MS2 coat protein [2] [nM] | apparent KD of MS2 coat protein [3] [nM] | apparent KD of MS2 coat protein [4] [nM] |
| --- | --- | --- | --- | --- | --- | --- |
| GUCGAGUGAGGAUAUGGUGAGUAGUGCCUGAGCGCUGCUCACCAGAAGGCACAUGAGGAUCACCCAUGUAUAAC [Mat - Exclusion 4 - Mod of JL - D14] (Eterna round: R96, puzzle: Exclusion 4) | 58.1 | 19.7 | 26.1 | – | – | – |
| GAAAACGCAGAGGAUAUAUCAGAUCAAAGCUGCAUAGAAGGCUGCACAUGAGGAUCACCCAUGUGGUCUUCAAA [jl-ex6-4.01 ViennaUCT mod] (Eterna round: R97, puzzle: Exclusion 6) | 243 | – | 20.9 | – | – | – |
| CAAUAACAAGCAGGAUCCUACAUGAGGAUCACCCAUGUGCUCGUCUUAUAAAGUACUAUCACGAAAGUGAUAGUACA [Mat - Sensor v3 - turn-off var 1 - Eli Mod - D71] (puzzle: Sensor v3, turn-off variant 1) | – | – | – | 190 | 58.6 | 396 |
| AUAAUGUAAGGAUAUCAGUCGACUAGCUUCGGCUAGUCGACUGAGAAGGUACAUGAGGAUCACCCAUGUAGAUC [E4/19-A1] (Eterna round: R97, puzzle: Exclusion 4) | 363 | – | 66 | – | – | – |
| CUGAGUAUAGGAUAUACAUGAGGAUCACCCAUGUAGAAACAAGGGUCUUACAACUAAAGUAGAAGGAUAUUUGG [ExFusion 7 - Jieux - Exclusion 3] (Eterna round: R97, puzzle: Exclusion 3) | 112 | – | 48.2 | – | – | – |
| CUCUUGGCAGGAUAUGCAAUUUUAGACAUGAGGAUCACCCAUGUGAUCAUUCCAUAUUAUGCAGAAGGGCCUAAAC [JR_E5_Sub049] (puzzle: Exclusion 5) | – | – | – | – | 54.3 | – |
| AUUUUGUCAGGAUAUUGUUAGUUUAGUUGUUUGUAUUAGUUCGAGAAGGGACAUGAGGAUCACCCAUGUGAUUA [Ex4 #73] (Eterna round: R97, puzzle: Exclusion 4) | 148 | – | 92.2 | – | – | – |
| GUCAGACGAGGAUAUGAUUAAUAAUACAUGAGGAUCACCCAUGUAAUACUGAUCUAUGGAUCAGAAGGCGUCUGAC [E5/6-A4] (Eterna round: R97, puzzle: Exclusion 5) | 15 | – | 16.1 | – | – | – |
| UAAGAUUACCGAGGAUAUGCUGGUUUAUCUCAAGCAGAAGGCGGACUCAACAUGAGGAUCACCCAUGUAAGACGGGUACUAGAU [Ex NG1 #12] (Eterna round: R96, puzzle: Exclusion NG 1) | 61.5 | 69.1 | 97.1 | – | – | – |
| UGCAUGCUAGGAUAUGCCGAGGAGAACAUGAGGAUCACCCAUGUGACCCGGAUGCCUUGAGCAGAAGGAGCUACUA [EX5 C.19] (Eterna round: R97, puzzle: Exclusion 5) | 22.4 | – | 15.2 | – | – | – |
| CUUUUGUGAGGAUAUCAGUAGUUAAAUAAUAAAAUUACUACUGAGAAGGCACAUGAGGAUCACCCAUGUUCCUC [Mat - Exclusion 4 - Mod of Salish - D70] (Eterna round: R96, puzzle: Exclusion 4) | 274 | 35.1 | 40 | – | – | – |
| UUUUGAAAGUGAGGAUAUGACAUGAGGAUCACCCAUGUAAAGGGAGUUGAAUAUAUAGAAAGAUAUCAGAAGGCACAAAUGUUU [JR_ExcNG2_Sub001] (Eterna round: R96, puzzle: Exclusion NG 2) | – | 115 | – | – | – | – |
| AUAAUGUCAGGAUAUACAUGAGGAUCACCCAUGUUAGAAAGAGAAGAAGAGAAACUAUGUAGAAGGGACAAUAA [Hair Trigger] (puzzle: Exclusion 3) | – | – | – | 43.7 | 20.6 | 29.1 |
| CUGUUUUCCGCAGGAUAUGCUCCUCCAUUACUAGCAGAAGGGCGUUGAACAUGAGGAUCACCCAUGUAUGUAAUUGCUUAUUGC [JR_ExcNG1_Sub072] (Eterna round: R96, puzzle: Exclusion NG 1) | 19.2 | 14.6 | 19.4 | – | – | – |
| CAGUACUGAGGAUAUACAUGAGGAUCACCCAUGUUCUUCGGCUAGGAUACUAGCAAAGGUAGAAGGCAGUACUG [Mat - Exclusion 3 - Eli Mod - D27] (Eterna round: R97, puzzle: Exclusion 3) | 144 | – | 18.7 | – | – | – |
| GCCGAAAGCGUAGGAUAUCGAAUAAAGCGGAAACGCAAGACAUGAGGAUCACCCAUGUGUCCGGACGAGAAGGGCGAAAGCGGC [EXNG2 V2 a] (Eterna round: R96, puzzle: Exclusion NG 2) | 33.4 | 27.1 | 34.3 | – | – | – |
| UUCCACGAUGUCAGGAUAUGUAGGGCCGCUGCUAGGCAGAAGGGACAUGAGGAUCACCCAUGUACUGACUACUG [Eternabot (L2) Solution 84] (Eterna round: R97, puzzle: Brourd's mod of Exclusion 4) | 78.2 | – | 69.6 | – | – | – |
| CAGUACUGAGGAUAUACAUGAGGAUCACCCAUGUAUCCUAGCUAGGAAACUAGCAAAAGUAGAAGGCAGUACUG [Ex3: 819] (Eterna round: R96, puzzle: Exclusion 3) | – | 12.4 | – | – | – | – |
| UUGUAGCAGGCCUUCGAGUACAUGAGGAUCACCCAUGUCGUGCCUGAAAUCUCAGAGACAGGUGGCUCGUCUUAGGC [Eternabot (L1) Solution 32] (Eterna round: R97, puzzle: Sensor, turn-off variant 1) | 21.2 | – | 16.9 | – | – | – |
| UUGUUAUAUGUAGGAUAUGCGUGUUAUUGUUAGGCAGAAGGACAUGAGGAUCACCCAUGUAUGUUGUUGUUAUAUAUUAUAUAU [Title] (Eterna round: R96, puzzle: Exclusion NG 1) | 41.9 | 21.2 | 34.4 | – | – | – |
| GUCCUACAUGAGGAUCACCCAUGUGAGGAUAUGCGAUUAGCUGCUAGGUAGUUAGUAUGUAGAAGGCGCGUGAA [EX1 #78] (Eterna round: R97, puzzle: Exclusion 1) | 15.6 | – | 14.4 | – | – | – |
| UACAUGAGGAUCACCCAUGUUUUGUCGUGUAUGGUAUUUAUCUAGGAUAUCAAUUUGUUUAUGUAUGAGAAGGAGAAUAUUAAU [JMF's solution 72] (Eterna round: R96, puzzle: Exclusion NG 3) | 32.9 | 28.4 | 35.6 | – | – | – |
| AUUGAUAUUGAGGAUAUGCUUUUAUUUGUUCUUGCAGAAGGCGAUACAUGAGGAUCACCCAUGUUUAUGGAAGU [JR_E6_Sub089] (puzzle: Exclusion 6) | – | – | – | – | 38.9 | – |
